Target: T1, hTUT1_ZF-RRM (Homo sapiens, UniProt Q9H6E5 1-140)
T1 sequence: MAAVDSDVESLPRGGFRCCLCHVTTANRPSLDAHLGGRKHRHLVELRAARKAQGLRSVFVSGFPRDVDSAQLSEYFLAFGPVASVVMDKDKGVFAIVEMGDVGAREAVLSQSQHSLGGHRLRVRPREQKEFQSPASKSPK
Experiment: EMSA; 10 mM MgCl2; EMSA: 50 mM Tris-Cl pH 8.5, 100 mM NaCl, 10 mM MgCl2, 10 mM beta-mercaptoethanol, 10% glycerol, room temperature 15 min; RNA 50 nM (U6) or 100 nM (U6_mini); protein 0-1000 nM
Settings: protein: recombinant; tags: His tag implied (pET22b, Ni-NTA); hairpin with 5' single strand

B1: U6_mini (structured_RNA)
RNA: GGAUACUAAAAUUGGAACGAUACAGAGUUCGCUCGUGAAGCGUUCCAUAUUUU
Kd: 204 ± 41 nM

From paper PMC10415362, “Mechanism of U6 snRNA oligouridylation by human TUT1”
